Two variants from IntAct's records for PubMed 23644599 can be followed below.

To fix the notation:
B1: mRNA decay activator protein ZFP36 (Homo sapiens), P26651 (parent)
chain: MDLTAIYESLLSLSPDVPVPSDHGGTESSPGWGSSGPWSLSPSDSSPSGVTSRLPGRSTSLVEGRSCGWVPPPPGFAPLAPRLGPELSPSPTSPTATSTTPSRYKTELCRTFSESGRCRYGAKCQFAHGLGELRQANRHPKYKTELCHKFYLQGRCPYGSRCHFIHNPSEDLAAPGHPPVLRQSISFSGLPSGRRTSPPPPGLAGPSLSSSSFSPSSSPPPPGDLPLSPSAFSAAPGTPLARRDPTPVCCPSCRRATPISVWGPLGGLVRTPSVQSLGSDPDEYASSGSSLGGSDSPVFEAGVFAPPQPVAAPRRLPIFNRISVSE

The variants in the first assay derive from B1. The conditions noted are these: with CNOT1, A5YKK6-2.
CNOT1, A5YKK6-2, sequence (A5YKK6 other isoform, or with tags, fused parts or gaps): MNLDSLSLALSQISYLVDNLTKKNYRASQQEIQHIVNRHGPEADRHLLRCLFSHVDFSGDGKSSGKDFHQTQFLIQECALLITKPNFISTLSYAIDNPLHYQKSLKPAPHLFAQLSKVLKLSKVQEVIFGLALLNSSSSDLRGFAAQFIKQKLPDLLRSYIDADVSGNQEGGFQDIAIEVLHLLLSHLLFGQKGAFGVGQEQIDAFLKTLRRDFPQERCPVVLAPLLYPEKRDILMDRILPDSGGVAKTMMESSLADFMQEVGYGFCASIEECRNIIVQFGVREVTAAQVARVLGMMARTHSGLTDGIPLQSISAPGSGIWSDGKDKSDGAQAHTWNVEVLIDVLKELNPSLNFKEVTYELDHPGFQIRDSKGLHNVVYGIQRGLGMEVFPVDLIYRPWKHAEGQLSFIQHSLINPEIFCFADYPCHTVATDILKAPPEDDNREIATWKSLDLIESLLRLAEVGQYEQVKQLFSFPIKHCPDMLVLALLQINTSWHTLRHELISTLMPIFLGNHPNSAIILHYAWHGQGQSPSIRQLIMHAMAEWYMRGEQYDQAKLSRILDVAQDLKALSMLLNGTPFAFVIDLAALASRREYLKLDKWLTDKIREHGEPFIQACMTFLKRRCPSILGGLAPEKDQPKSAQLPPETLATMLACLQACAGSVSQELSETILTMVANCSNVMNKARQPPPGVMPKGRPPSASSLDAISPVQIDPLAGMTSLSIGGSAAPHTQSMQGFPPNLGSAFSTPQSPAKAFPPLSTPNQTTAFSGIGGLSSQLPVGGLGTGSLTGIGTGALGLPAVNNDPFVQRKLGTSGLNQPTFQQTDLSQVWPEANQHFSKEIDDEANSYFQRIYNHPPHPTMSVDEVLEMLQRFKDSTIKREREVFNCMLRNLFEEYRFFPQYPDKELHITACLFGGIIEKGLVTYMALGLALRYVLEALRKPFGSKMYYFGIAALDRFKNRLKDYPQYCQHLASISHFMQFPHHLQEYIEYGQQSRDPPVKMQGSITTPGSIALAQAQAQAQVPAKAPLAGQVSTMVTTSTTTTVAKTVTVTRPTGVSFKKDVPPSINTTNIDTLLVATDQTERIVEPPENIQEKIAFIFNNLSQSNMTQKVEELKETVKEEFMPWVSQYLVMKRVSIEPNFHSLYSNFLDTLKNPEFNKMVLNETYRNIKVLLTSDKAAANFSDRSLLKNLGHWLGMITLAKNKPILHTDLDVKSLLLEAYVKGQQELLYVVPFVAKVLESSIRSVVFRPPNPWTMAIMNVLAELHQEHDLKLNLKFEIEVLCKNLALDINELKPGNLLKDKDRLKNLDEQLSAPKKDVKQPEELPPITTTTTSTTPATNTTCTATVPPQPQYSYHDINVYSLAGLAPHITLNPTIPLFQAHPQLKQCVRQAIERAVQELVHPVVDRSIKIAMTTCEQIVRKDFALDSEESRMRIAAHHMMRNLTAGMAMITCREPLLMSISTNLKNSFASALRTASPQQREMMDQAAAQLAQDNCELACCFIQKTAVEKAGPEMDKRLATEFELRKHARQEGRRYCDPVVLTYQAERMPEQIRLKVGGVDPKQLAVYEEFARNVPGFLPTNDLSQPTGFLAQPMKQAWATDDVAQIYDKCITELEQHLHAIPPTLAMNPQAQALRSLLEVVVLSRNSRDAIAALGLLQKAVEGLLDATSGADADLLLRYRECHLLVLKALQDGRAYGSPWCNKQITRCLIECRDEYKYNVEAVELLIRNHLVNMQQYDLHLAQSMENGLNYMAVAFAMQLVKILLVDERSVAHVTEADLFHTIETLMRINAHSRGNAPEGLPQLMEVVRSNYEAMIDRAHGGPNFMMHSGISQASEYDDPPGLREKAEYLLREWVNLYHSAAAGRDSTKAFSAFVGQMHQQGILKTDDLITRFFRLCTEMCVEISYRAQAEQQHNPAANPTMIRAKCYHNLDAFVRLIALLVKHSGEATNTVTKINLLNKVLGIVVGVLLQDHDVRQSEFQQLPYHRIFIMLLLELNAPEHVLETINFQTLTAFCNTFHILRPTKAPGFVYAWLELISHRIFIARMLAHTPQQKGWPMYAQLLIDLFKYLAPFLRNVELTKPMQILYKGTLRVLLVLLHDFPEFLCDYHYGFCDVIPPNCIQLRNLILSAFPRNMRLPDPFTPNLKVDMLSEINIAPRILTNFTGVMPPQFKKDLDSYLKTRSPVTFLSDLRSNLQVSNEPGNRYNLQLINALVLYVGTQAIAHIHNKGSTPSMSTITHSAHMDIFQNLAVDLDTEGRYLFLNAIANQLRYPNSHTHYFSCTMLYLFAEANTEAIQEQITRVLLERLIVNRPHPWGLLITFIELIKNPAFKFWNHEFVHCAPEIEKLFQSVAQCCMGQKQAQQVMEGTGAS
As to R315A, the “effect of a mutation on the interaction” value is reported as “disrupting interaction strength”.

In the next assay the parent is B1. To be noted: with CNOT1, A5YKK6-2. The source holds these as a separate data set.
With F319A, the “effect of a mutation on the interaction” value was “disrupting interaction strength”.
